Data published in patent US20050032689A1, “Methods for treatment or diagnosis of disease or disorders associated with an APB domain” (New York University, priority 1994, published 2005).

Assays:
[1] = system: HER2/neu (HER1/2 chimera); test: Binding of GST-Shc fusion proteins to HER1/2 chimera from NIH 3T3 lysates, anti-phosphotyrosine blot; conditions: EGF-stimulated NIH 3T3 lysates
Protocol: FIGS. 4A, 4B, 4C and 4D. Binding of Shc fragments to growth factor receptors. A, schematic diagram illustrating the Shc fragments used in binding studies. Full length murine p52^shc is indicated in (i) while (ii)-(vi) were generated as GST fusion proteins for use in receptor binding studies. B, association of various GST fusion proteins with activated EGF receptor (EGFR). Binding was performed as in FIG. 2A with the exception that all lysates were stimulated with EGF. All studies used 3 μg of fusion proteins except for the Shc SH2 where 10 μg was used. Immunoblotting was performed with anti-phosphotyrosine. C, binding of Shc fusion proteins to NIH 3T3 cells expressing a HER1/2 chimera. This chimera consists of the EGF receptor extracellular binding domain and the intracellular region of HER2/neu. After stimulation of these cells with EGF (200 ng/ml) lysates were prepared and binding as well as blotting studies were performed as in B using anti-phosphotyrosine antibody. D, binding of Shc 1-209 to TrkA. Beads containing 10 μg of GST fusion proteins Shc 1-209, phospholipase C-γ (PLC-γ) SH2 (contains both N and C SH2 domains), or GST alone were added to lysates from 2×10^7 PC12 cells stimulated with 50 ng/ml nerve growth factor (lanes 1, 2, and 4). The binding of the same amount of lysate to 2 μg of anti-TrkA antibody is shown as a positive control and to indicate the position of TrkA on the blot (lane 3). Otherwise, the binding and blotting were performed as in B using anti-phosphotyrosine antibody. […] Protein concentration was determined by SDS-PAGE (polyacrylamide gel electrophoresis) using bovine serum albumin as a standard. […]

EGF receptor = target: T1, EGF receptor (Homo sapiens, UniProt P00533); test: Binding of GST fusion proteins to immunoprecipitated EGF receptor phosphorylated in vitro, anti-GST blot; conditions: immunoprecipitated receptor from unstimulated cells, with or without Mn2+ and ATP
T1 construct: expressed in transfected cells; host or cells: HER14 (NIH 3T3 cells expressing human EGF receptor)
Protocol: FIGS. 2A and 2B. Association of GST-Shc 1-209 with the EGF Receptor (EGFR). A, HER14 lysates from either EGF-stimulated (+) or unstimulated (−) cells (5×10^6 cells) were incubated with 3 μg of GST fusion protein immobilized on glutathione-agarose beads. The bound proteins were washed, subjected to SDS-PAGE, transferred to nitrocellulose and immunoblotted with anti-EGF receptor antibody, anti-C (anti-EGFR). HER14 lysate (4×10^5 cells) was run directly on the gel in lanes 5 and 6. B, unstimulated HER14 lysates (5×10^6 cells) were immunoprecipitated with anti-EGFR antibody (mAb 108). The immobilized receptor was then phosphorylated (+) by the addition of 5 mM MnCl2 and 50 μM ATP or left unphosphorylated (−) by adding MnCl2 alone. Bacterial lysates containing 5 μg of GST, GST-Grb7, and GST-Shc 1-209 were then diluted in 1 ml of 1% Triton X-100 lysis buffer, added to the immobilized receptor and incubated at 4° C. for 90 min. The bound proteins were washed and together with 40 μl of the post-binding supernatant separated by SDS-PAGE and transferred to nitrocellulose. […]
Binding Studies—GST fusion proteins were expressed using standard techniques (Ausubel, F. M., et al. Current Protocols in Molecular Biology, (1992) Wiley Interscience, New York). Protein concentration was determined by SDS-PAGE (polyacrylamide gel electrophoresis) using bovine serum albumin as a standard. […]

B1: Shc 1-209: Shc amino terminus, first 209 amino acids of murine p52Shc, generated as a GST fusion protein (protein, UniProt P98083 1-209, looked up, fragment)
chain: MDLLPPKPKYNPLRNESLSSLEEGASGSTPPEELPSPSASSLGPILPPLPGDDSPTTLCSFFPRMSNLKLANPAGGRLGPKGEPGKAAEDGEGSAGAALRDSGLLPLLQDMNKLSGGGGRRTRVEGGQLGGEEWTRHGSFVNKPTRGWLHPNDKVMGPGVSYLVRYMGCVEVLQSMRALDFNTRTQVTREAISLVCEAVPGAKGATRRR
modifications: GST fusion
notes: Shc amino terminus, first 209 amino acids of murine p52Shc, generated as a GST fusion protein
binding to HER2/neu [1]: bound to HER2/neu | binding to EGF receptor phosphorylated in vitro (EGF receptor): bound directly to phosphorylated but not non-phosphorylated receptors
